Measured values reported in patent US20210246166A1 (Bayer, published 2021).
Numbered stars: 1 amine (or outer) side, 2 acyl side, 3 side chain; on linkers, the order of the positions; unused ones are H or OH. Bridge positions count the residues as written; N and C are the ends. Square brackets hold non-standard residues; d marks the D form. Ends that are not written are not given here. X11 = (S)‑Piperidine‑3‑carboxylic acid, O=C([C@H]1CCCN([*:1])C1)[*:2]; 4‑Aminomethylphenylacetic acid = O=C(Cc1ccc(CN[*:1])cc1)[*:2]; NHCH2(1,3-C6H4)CH2CO = O=C(Cc1cccc(CN[*:1])c1)[*:2]; Phe(3-COOH) = N[C@@H](Cc1cccc(C(=O)O)c1)C(=O)O; Nip(3R) = O=C([C@@H]1CCCN([*:1])C1)[*:2]; Oic = O=C(O)[C@@H]1C[C@@H]2CCCC[C@@H]2N1; tBuAla = CC(C)(C)C[C@H](N)C(=O)O; PEG4 = NCCOCCOCCOCCOCCC(=O)O; Pen = CC(C)(S)[C@H](N)C(=O)O; NMeC = CN[C@@H](CS)C(=O)O; PEG3 = NCCOCCOCCOCCC(=O)O; Orn = NCCC[C@H](N)C(=O)O; Sar = CNCC(=O)O

T1: Recombinant human MASP1 enzyme (fragment corresponding to amino acids 297-699, C-terminal His Tag) (human, UniProt P48740 297-699)
T1 sequence: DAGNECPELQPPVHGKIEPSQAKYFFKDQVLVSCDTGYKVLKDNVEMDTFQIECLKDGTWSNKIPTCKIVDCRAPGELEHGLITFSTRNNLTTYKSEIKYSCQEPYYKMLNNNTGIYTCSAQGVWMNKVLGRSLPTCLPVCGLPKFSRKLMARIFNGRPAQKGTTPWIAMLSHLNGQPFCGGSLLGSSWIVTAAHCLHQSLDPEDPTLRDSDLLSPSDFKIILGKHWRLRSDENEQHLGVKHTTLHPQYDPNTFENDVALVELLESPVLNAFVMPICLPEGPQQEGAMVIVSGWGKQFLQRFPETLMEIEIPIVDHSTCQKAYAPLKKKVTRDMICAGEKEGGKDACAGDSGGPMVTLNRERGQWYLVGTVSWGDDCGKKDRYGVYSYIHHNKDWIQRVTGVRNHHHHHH

B1: ((N-Me)G)-IC+SRSLP-(Oic)-I-(Pen)+IPD-(PEG2(13 atoms))-OH (peptide)
peptide: [Sar]ICSRSLP[Oic]I[Pen]IPD[PEG3]-OH
modifications: disulfide 3-11; N-terminus assumed
SMILES: CC[C@H](C)[C@H](NC(=O)CNC)C(=O)N[C@H]1CSSC(C)(C)[C@@H](C(=O)N[C@H](C(=O)N2CCC[C@H]2C(=O)N[C@@H](CC(=O)O)C(=O)NCCOCCOCCOCCC(=O)O)[C@@H](C)CC)NC(=O)[C@H]([C@@H](C)CC)NC(=O)[C@@H]2C[C@@H]3CCCC[C@@H]3N2C(=O)[C@@H]2CCCN2C(=O)[C@H](CC(C)C)NC(=O)[C@H](CO)NC(=O)[C@H](CCCNC(=N)N)NC(=O)[C@H](CO)NC1=O
B2: ((N-Me)G)-IC+SRS-((tBu)A)-PPI-(Pen)+IP-(Orn)-D-OH (peptide)
peptide: [Sar]ICSRS[tBuAla]PPI[Pen]IP[Orn]D-OH
modifications: disulfide 3-11; N-terminus assumed
SMILES: CC[C@H](C)[C@H](NC(=O)CNC)C(=O)N[C@H]1CSSC(C)(C)[C@@H](C(=O)N[C@H](C(=O)N2CCC[C@H]2C(=O)N[C@@H](CCCN)C(=O)N[C@@H](CC(=O)O)C(=O)O)[C@@H](C)CC)NC(=O)[C@H]([C@@H](C)CC)NC(=O)[C@@H]2CCCN2C(=O)[C@@H]2CCCN2C(=O)[C@H](CC(C)(C)C)NC(=O)[C@H](CO)NC(=O)[C@H](CCCNC(=N)N)NC(=O)[C@H](CO)NC1=O
B3: ((S)-Piperidine-3-Carboxylic Acid)-IC+SRSLP-(Oic)-I-(Pen)+IPD-OH (peptide)
peptide: [X11]ICSRSLP[Oic]I[Pen]IPD-OH
modifications: disulfide 3-11; N-terminus assumed
SMILES: CC[C@H](C)[C@H](NC(=O)[C@H]1CCCNC1)C(=O)N[C@H]1CSSC(C)(C)[C@@H](C(=O)N[C@H](C(=O)N2CCC[C@H]2C(=O)N[C@@H](CC(=O)O)C(=O)O)[C@@H](C)CC)NC(=O)[C@H]([C@@H](C)CC)NC(=O)[C@@H]2C[C@@H]3CCCC[C@@H]3N2C(=O)[C@@H]2CCCN2C(=O)[C@H](CC(C)C)NC(=O)[C@H](CO)NC(=O)[C@H](CCCNC(=N)N)NC(=O)[C@H](CO)NC1=O
B4: ((N-Me)G)-IC+SRS-((tBu)A)-PPI-(Pen)+IP-(PEG3(16atoms))-OH (peptide)
peptide: [Sar]ICSRS[tBuAla]PPI[Pen]IP[PEG4]-OH
modifications: disulfide 3-11; N-terminus assumed
SMILES: CC[C@H](C)[C@H](NC(=O)CNC)C(=O)N[C@H]1CSSC(C)(C)[C@@H](C(=O)N[C@H](C(=O)N2CCC[C@H]2C(=O)NCCOCCOCCOCCOCCC(=O)O)[C@@H](C)CC)NC(=O)[C@H]([C@@H](C)CC)NC(=O)[C@@H]2CCCN2C(=O)[C@@H]2CCCN2C(=O)[C@H](CC(C)(C)C)NC(=O)[C@H](CO)NC(=O)[C@H](CCCNC(=N)N)NC(=O)[C@H](CO)NC1=O
B5: ((N-Me)G)-IC+SRSLP-(Oic)-I-(Pen)+IPR-OH (peptide)
peptide: [Sar]ICSRSLP[Oic]I[Pen]IPR-OH
modifications: disulfide 3-11; N-terminus assumed
SMILES: CC[C@H](C)[C@H](NC(=O)CNC)C(=O)N[C@H]1CSSC(C)(C)[C@@H](C(=O)N[C@H](C(=O)N2CCC[C@H]2C(=O)N[C@@H](CCCNC(=N)N)C(=O)O)[C@@H](C)CC)NC(=O)[C@H]([C@@H](C)CC)NC(=O)[C@@H]2C[C@@H]3CCCC[C@@H]3N2C(=O)[C@@H]2CCCN2C(=O)[C@H](CC(C)C)NC(=O)[C@H](CO)NC(=O)[C@H](CCCNC(=N)N)NC(=O)[C@H](CO)NC1=O
B6: ((N-Me)G)-IC+SRSLP-(Oic)-I-(Pen)+IP-(3-Aminomethylphenylacetic acid)-OH (peptide)
peptide: [Sar]ICSRSLP[Oic]I[Pen]IP[NHCH2(1,3-C6H4)CH2CO]-OH
modifications: disulfide 3-11; N-terminus assumed
SMILES: CC[C@H](C)[C@H](NC(=O)CNC)C(=O)N[C@H]1CSSC(C)(C)[C@@H](C(=O)N[C@H](C(=O)N2CCC[C@H]2C(=O)NCc2cccc(CC(=O)O)c2)[C@@H](C)CC)NC(=O)[C@H]([C@@H](C)CC)NC(=O)[C@@H]2C[C@@H]3CCCC[C@@H]3N2C(=O)[C@@H]2CCCN2C(=O)[C@H](CC(C)C)NC(=O)[C@H](CO)NC(=O)[C@H](CCCNC(=N)N)NC(=O)[C@H](CO)NC1=O
B7: (beta-P)-IC+SRS-((tBu)A)-PPI-(Pen)+IPD-OH (peptide)
peptide: PICSRS[tBuAla]PPI[Pen]IPD-OH
modifications: disulfide 3-11; N-terminus assumed
SMILES: CC[C@H](C)[C@H](NC(=O)[C@@H]1CCCN1)C(=O)N[C@H]1CSSC(C)(C)[C@@H](C(=O)N[C@H](C(=O)N2CCC[C@H]2C(=O)N[C@@H](CC(=O)O)C(=O)O)[C@@H](C)CC)NC(=O)[C@H]([C@@H](C)CC)NC(=O)[C@@H]2CCCN2C(=O)[C@@H]2CCCN2C(=O)[C@H](CC(C)(C)C)NC(=O)[C@H](CO)NC(=O)[C@H](CCCNC(=N)N)NC(=O)[C@H](CO)NC1=O
B8: ((N-Me)G)-IC+SRS-((tBu)A)-PPI-(Pen)+IP-((3-Carboxy)F)-OH (peptide)
peptide: [Sar]ICSRS[tBuAla]PPI[Pen]IP[Phe(3-COOH)]-OH
modifications: disulfide 3-11; N-terminus assumed
SMILES: CC[C@H](C)[C@H](NC(=O)CNC)C(=O)N[C@H]1CSSC(C)(C)[C@@H](C(=O)N[C@H](C(=O)N2CCC[C@H]2C(=O)N[C@@H](Cc2cccc(C(=O)O)c2)C(=O)O)[C@@H](C)CC)NC(=O)[C@H]([C@@H](C)CC)NC(=O)[C@@H]2CCCN2C(=O)[C@@H]2CCCN2C(=O)[C@H](CC(C)(C)C)NC(=O)[C@H](CO)NC(=O)[C@H](CCCNC(=N)N)NC(=O)[C@H](CO)NC1=O
B9: (Orn)-IC+SRS-((tBu)A)-PPI-((N-Me)C)+IPD-OH (peptide)
peptide: [Orn]ICSRS[tBuAla]PPI[NMeC]IPD-OH
modifications: disulfide 3-11; N-terminus assumed
SMILES: CC[C@H](C)[C@H](NC(=O)[C@@H](N)CCCN)C(=O)N[C@H]1CSSC[C@@H](C(=O)N[C@H](C(=O)N2CCC[C@H]2C(=O)N[C@@H](CC(=O)O)C(=O)O)[C@@H](C)CC)N(C)C(=O)[C@H]([C@@H](C)CC)NC(=O)[C@@H]2CCCN2C(=O)[C@@H]2CCCN2C(=O)[C@H](CC(C)(C)C)NC(=O)[C@H](CO)NC(=O)[C@H](CCCNC(=N)N)NC(=O)[C@H](CO)NC1=O
B10: ((N-Me)G)-IC+SRSLP-(Oic)-I-(Pen)+IP-(4-Aminomethylphenylacetic acid)-OH (peptide)
peptide: [Sar]ICSRSLP[Oic]I[Pen]IP[4‑Aminomethylphenylacetic acid]-OH
modifications: disulfide 3-11; N-terminus assumed
SMILES: CC[C@H](C)[C@H](NC(=O)CNC)C(=O)N[C@H]1CSSC(C)(C)[C@@H](C(=O)N[C@H](C(=O)N2CCC[C@H]2C(=O)NCc2ccc(CC(=O)O)cc2)[C@@H](C)CC)NC(=O)[C@H]([C@@H](C)CC)NC(=O)[C@@H]2C[C@@H]3CCCC[C@@H]3N2C(=O)[C@@H]2CCCN2C(=O)[C@H](CC(C)C)NC(=O)[C@H](CO)NC(=O)[C@H](CCCNC(=N)N)NC(=O)[C@H](CO)NC1=O
B11: ((R)-Piperidine-3-Carboxylic Acid)-IC+SRSLP-(Oic)-I-(Pen)+IPD-OH (peptide)
peptide: [Nip(3R)]ICSRSLP[Oic]I[Pen]IPD-OH
modifications: disulfide 3-11; N-terminus assumed
SMILES: CC[C@H](C)[C@H](NC(=O)[C@@H]1CCCNC1)C(=O)N[C@H]1CSSC(C)(C)[C@@H](C(=O)N[C@H](C(=O)N2CCC[C@H]2C(=O)N[C@@H](CC(=O)O)C(=O)O)[C@@H](C)CC)NC(=O)[C@H]([C@@H](C)CC)NC(=O)[C@@H]2C[C@@H]3CCCC[C@@H]3N2C(=O)[C@@H]2CCCN2C(=O)[C@H](CC(C)C)NC(=O)[C@H](CO)NC(=O)[C@H](CCCNC(=N)N)NC(=O)[C@H](CO)NC1=O
B12: aIC+SRSLP-(Oic)-I-(Pen)-+IP-(3-Aminomethylphenylacetic acid)-OH (peptide)
peptide: [dA]ICSRSLP[Oic]I[Pen]IP[NHCH2(1,3-C6H4)CH2CO]-OH
modifications: disulfide 3-11; N-terminus assumed
SMILES: CC[C@H](C)[C@H](NC(=O)[C@@H](C)N)C(=O)N[C@H]1CSSC(C)(C)[C@@H](C(=O)N[C@H](C(=O)N2CCC[C@H]2C(=O)NCc2cccc(CC(=O)O)c2)[C@@H](C)CC)NC(=O)[C@H]([C@@H](C)CC)NC(=O)[C@@H]2C[C@@H]3CCCC[C@@H]3N2C(=O)[C@@H]2CCCN2C(=O)[C@H](CC(C)C)NC(=O)[C@H](CO)NC(=O)[C@H](CCCNC(=N)N)NC(=O)[C@H](CO)NC1=O
B13: ((N-Me)G)-IC+SRSLP-(Oic)-I-(Pen)+IP-((3-Carboxy)F)-OH (peptide)
peptide: [Sar]ICSRSLP[Oic]I[Pen]IP[Phe(3-COOH)]-OH
modifications: disulfide 3-11; N-terminus assumed
SMILES: CC[C@H](C)[C@H](NC(=O)CNC)C(=O)N[C@H]1CSSC(C)(C)[C@@H](C(=O)N[C@H](C(=O)N2CCC[C@H]2C(=O)N[C@@H](Cc2cccc(C(=O)O)c2)C(=O)O)[C@@H](C)CC)NC(=O)[C@H]([C@@H](C)CC)NC(=O)[C@@H]2C[C@@H]3CCCC[C@@H]3N2C(=O)[C@@H]2CCCN2C(=O)[C@H](CC(C)C)NC(=O)[C@H](CO)NC(=O)[C@H](CCCNC(=N)N)NC(=O)[C@H](CO)NC1=O

Target: T1, Recombinant human MASP1 enzyme …
Experiment: cell-based or functional assay

Row | human MASP1 IC50 [nM] | Binder
1 | 5.5 | B1
2 | 3.8 | B2
3 | 2.4 | B3
4 | 2.1 | B4
5 | 2.35 | B5
6 | 9.6 | B6
7 | 3 | B7
8 | 2.8 | B8
9 | 5.85 | B9
10 | 3.8 | B10
11 | 5.2 | B11
12 | 3.7 | B12
13 | 5.4 | B13

Target: Recombinant human MASP2 enzyme (fragment corresponding to amino acids 297-686, C-terminal His Tag) (human, UniProt O00187 297-686)
Sequence (O00187 other isoform, or with tags, fused parts or gaps limits assumed): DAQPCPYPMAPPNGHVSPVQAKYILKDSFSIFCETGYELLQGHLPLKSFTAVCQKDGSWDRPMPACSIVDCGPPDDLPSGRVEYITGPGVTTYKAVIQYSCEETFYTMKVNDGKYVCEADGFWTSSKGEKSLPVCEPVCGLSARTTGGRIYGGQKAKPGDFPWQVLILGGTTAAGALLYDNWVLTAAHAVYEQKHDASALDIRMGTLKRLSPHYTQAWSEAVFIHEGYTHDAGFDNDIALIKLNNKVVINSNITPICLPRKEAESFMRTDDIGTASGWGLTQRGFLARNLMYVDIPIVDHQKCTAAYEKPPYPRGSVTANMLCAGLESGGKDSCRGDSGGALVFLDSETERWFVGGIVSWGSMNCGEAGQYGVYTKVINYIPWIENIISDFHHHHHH
Experiment: cell-based or functional assay

Row | human MASP2 IC50 [nM] | Binder
14 | 120 | B1
15 | 32 | B2
16 | 32 | B3
17 | 35 | B4
18 | 48 | B5
19 | 172 | B6
20 | 35 | B7
21 | 25 | B8
22 | 175 | B9
23 | 61 | B10
24 | 110 | B11
25 | 37 | B12
26 | 64 | B13
